Laboratory results published in publication PMC9549473, “Triple-FRET multi-purpose fluorescent probe for three-protease detection” (RSC Advances, 2022).
Non-standard residues stand in square brackets, D forms with d. Residues, ends and D or L forms follow the SMILES beside them. Groups on a side chain read outwards from the residue. *: point of attachment. RhodamineB = CCN(CC)c1ccc2c(-c3ccccc3C(=O)*)c3ccc(=[N+](CC)CC)cc-3oc2c1; X1 = CC[N+](CC)=c1ccc2c(-c3ccccc3C(=O)*)c3c(oc-2c1)-c1ccc(N(C)C)cc1CC3; X3 = CCN(CC)c1ccc2cc(C(=O)N[C@@H](CCCCN*)C(=O)O)c(=O)oc2c1; X2 = O=C(c1ccccc1-c1c2ccc(=O)cc-2oc2cc(O)ccc12)*; AEEA = NCCOCCOCC(=O)O; Sar = CNCC(=O)O

Experiments:
[1] = Solubility in aqueous media (Tris–HCl buffer); assay type: physicochemical; details: Tris–HCl buffer pH 8.0, from solid, read-out: solubility: stock solution that could be promptly and efficiently prepared
Description: (§1) Due to its size and complexity, the 4-dye probe (1) was also briefly examined from the solubility in aqueous media point of view. It turned out that at least 0.5 mM stock solution of the target substrate (1) in Tris–HCl buffer (pH = 8.0) could be promptly and efficiently prepared. For comparison, a solution of a hundredfold lower concentration (5 μM) of the 4-dye probe (1) in the same buffer media was utilized in the biological assays. The relatively high solubility of the substrate (1) could be attributed to its structure (Fig. 1), comprising six polyethylene glycol-based (PEG) spacers and two charged fluorophores (Rhodamine B and HN6). Moreover, three terminal carboxyl groups of the peptide backbone are instantly turned into corresponding carboxylate salts in a basic buffer environment, contributing to the solubility of the 4-dye probe (1) in aqueous media. Afterwards, its stability was taken into consideration. The dark blue powder obtained after freeze-drying was dissolved in an appropriate volume of Tris–HCl buffer (pH = 8.0), and shortly after that, LC-MS analysis was performed. The process was repeated a few times within one month.

[2] = molecular target: T1, Caspase-8 (human, recombinant, active) (Homo sapiens, UniProt Q14790); experiment: Single protease detection with the triple-FRET 4-dye probe: caspase-8; assay type: biochemical; details: 5 μM probe, Tris–HCl pH 8.0 with DTT 10 mM, 37 °C, 45 min, λexc 425 nm, three parallels
T1 construct: Caspase-8 (human, recombinant, active, 5000 units per mg protein); purchased Enzo Life Sciences, Inc. (New York, USA)
Text: (§2) Trypsin (bovine pancreas, TPCK treated, ≥10 000 BAEE units per mg protein) and α-chymotrypsin (bovine pancreas, TLCK treated, type VII, ≥40 units per mg protein) were ordered from Sigma-Aldrich (Steinheim, Germany). Caspase-8 (human, recombinant, active, 5000 units per mg protein) was provided by Enzo Life Sciences, Inc. (New York, USA). All enzyme species were obtained in the form of lyophilized white to off-white powders. They were reconstituted according to the providers' instructions, aliquoted in Eppendorf tubes, and finally stored at −80 °C in a deep freezer (Arctiko, Esbjerg Kommune, Denmark). […]
(§3) The appropriate amount of the 4-dye probe (1) was dissolved in 950 μL of Tris–HCl buffer. […] Afterwards, the fluorescence emission spectrum upon excitation with the light source of 425 nm was measured at the time 0 using a fluorescence spectrometer (Cary Eclipse, Agilent Technologies, Santa Carla, CA, USA). […] Fluorescence emission responses were then repeatedly measured at the times 2, 5, 8, 12, 16, 20, 25, 30, 35, 40, and 45 min. During the entire period of the experiment, a fluorimeter cuvette was placed in a cell holder preheated to 37 °C, and located inside a fluorescence spectrometer.
(§4) Additionally, the rules for individual protease recognition could be graphically presented, using fluorescence emission ratios of suitable fluorophores measured at particular times. […]

[3] = Storage stability of the solid, LC-MS; assay type: physicochemical; details: solid powder stored at −80 °C; dissolved to 50 μM in Tris–HCl pH 8.0 and analysed by LC-MS, repeated over 30 days
Description: The isolated 4-dye substrate (1) was characterized by LC-MS analysis and HRMS. Its final purity was determined based on LC-MS analysis, testing different analytical columns, mobile phases, gradients and elution times (ESI – Fig. S6 and S7 ^†). For stability testing, the 4-dye probe (1) in the form of powder (stored at −80 °C) was dissolved in an appropriate volume of Tris–HCl buffer (pH = 8.0) to obtain a 50 μM solution and subsequently analyzed by LC-MS. This process was repeated a few times over 30 days.
as §1, with “Afterwards, its stability was taken into consideration. The dark blue powder obtained after freeze-drying was dissolved in an appropriate volume of Tris–HCl buffer (pH = 8.0), and shortly after that, LC-MS analysis was performed. The process was repeated a few times within one month.” left out

[4] = molecular target: T2, Trypsin (bovine pancreas, TPCK treated) (Bos taurus, UniProt P00760); experiment: Single protease detection with the triple-FRET 4-dye probe: trypsin; assay type: biochemical; details: 5 μM probe, Tris–HCl pH 8.0, 37 °C, 45 min, λexc 425 nm, three parallels
T2 construct: Trypsin (bovine pancreas, TPCK treated, ≥10 000 BAEE units per mg protein); purchased Sigma-Aldrich (Steinheim, Germany); host or cells: bovine pancreas (tissue-derived)
T2 sequence (P00760 24-246): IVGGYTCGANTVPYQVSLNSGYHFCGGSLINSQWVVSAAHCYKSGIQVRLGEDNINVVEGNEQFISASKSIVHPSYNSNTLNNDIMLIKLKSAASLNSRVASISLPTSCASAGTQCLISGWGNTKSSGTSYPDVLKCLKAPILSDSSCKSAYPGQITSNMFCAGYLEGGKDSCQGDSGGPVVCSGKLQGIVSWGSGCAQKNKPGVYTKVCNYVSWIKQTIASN
Text: as §2, §3, §4

[5] = molecular target: T3, α-chymotrypsin (bovine pancreas, TLCK treated, type VII) (Bos taurus, UniProt P00766); experiment: Single protease detection with the triple-FRET 4-dye probe: chymotrypsin; assay type: biochemical; details: 5 μM probe, Tris–HCl pH 8.0, 37 °C, 45 min, λexc 425 nm, three parallels
T3 construct: α-chymotrypsin (bovine pancreas, TLCK treated, type VII, ≥40 units per mg protein); purchased Sigma-Aldrich (Steinheim, Germany); host or cells: bovine pancreas (tissue-derived)
Text: as §2, §3, §4

caspase-8 = molecular target: T4, caspase-8 (Homo sapiens, UniProt Q14790); experiment: LC-MS analysis of the probe cleaved by caspase-8; assay type: biochemical; details: LC-MS of cleavage fragments
T4 construct: Caspase-8 (human, recombinant, active, 5000 units per mg protein); purchased Enzo Life Sciences, Inc. (New York, USA)

chymotrypsin = molecular target: T5, chymotrypsin (Bos taurus, UniProt P00766); experiment: LC-MS analysis of the probe cleaved by chymotrypsin; assay type: biochemical, bovine; details: LC-MS of cleavage fragments; chymotrypsin 2.5 µg/mL, 2 hours
T5 construct: α-chymotrypsin (bovine pancreas, TLCK treated, type VII, ≥40 units per mg protein); purchased Sigma-Aldrich (Steinheim, Germany); host or cells: bovine pancreas (tissue-derived)
Description: (§5) Following the successful development of the methodology for the separate detection of individual proteases in a sample, we decided to investigate and evaluate the possibilities of simultaneous detection of multiple enzymes. […] Consequently, some potential ambiguities and drawbacks were expected from the perspective of nonspecific cleavage of the 4-dye substrate 1 by chymotrypsin. The experiments of the two-enzyme detection were performed with all three theoretically possible pairs of the considered proteases in their low concentrations.
Figure S10: LC-MS analysis of the 4-dye probe cleaved by chymotrypsin (2.5 µg/mL, 2 hours).
Fragment 1 (Rt = 1.46 min) […]

[6] = Stability in buffer solution without enzyme (fluorescence responses, blank sample); assay type: physicochemical; details: no enzyme, 5 μM probe, λexc 425 nm
Description: Enzyme assays were carried out in 0.1 M Tris–HCl buffer solution in ultrapure water, with the addition of NaCl (25 mM), EDTA (5 mM) and glycerol (2.5% v/v). The pH of the media (pH = 8.0) was adjusted by gradual dropwise addition of concentrated NaOH aqueous solution.
The appropriate amount of the 4-dye probe (1) was dissolved in 950 μL of Tris–HCl buffer. The resulting solution was placed into a plastic fluorimeter cuvette and preheated to 37 °C. Afterwards, the fluorescence emission spectrum upon excitation with the light source of 425 nm was measured at the time 0 using a fluorescence spectrometer (Cary Eclipse, Agilent Technologies, Santa Carla, CA, USA). Then 20 μL of 1 mM HCl with/without enzyme (trypsin or chymotrypsin) and 30 μL of physiological saline solution with/without enzyme (caspase-8) were added, resulting in a final volume of 1 mL of 5 μM 4-dye substrate (1). In the case of caspase-8, DL-dithiothreitol (10 mM) was also present in a buffer. Fluorescence emission responses were then repeatedly measured at the times 2, 5, 8, 12, 16, 20, 25, 30, 35, 40, and 45 min. During the entire period of the experiment, a fluorimeter cuvette was placed in a cell holder preheated to 37 °C, and located inside a fluorescence spectrometer.
As the three target proteases, trypsin, chymotrypsin, and caspase-8 were considered. […] During the biological testing, the emission responses of all four dyes were monitored throughout the entire period of the experiment. The assay conditions and parameters were established based on our practical observations, theoretical facts, and previous experience.[12,28,29] To obtain a uniform incubation medium suitable for all three proteases detection, the appropriate conditions for trypsin and chymotrypsin sensing were combined with those suitable for caspase-8 screening. As a result, EDTA, NaCl and glycerol were added to the Tris–HCl buffer solution, and its pH value was set to 8.0. After dissolving the intact 4-dye probe (1) in that way prepared buffer, the emission responses of all four fluorophores were monitored within 45 min of incubation at 37 °C.

trypsin = molecular target: T6, trypsin (Bos taurus, UniProt P00760); experiment: LC-MS analysis of the probe cleaved by trypsin; assay type: biochemical, bovine; details: LC-MS of cleavage fragments
T6 construct: Trypsin (bovine pancreas, TPCK treated, ≥10 000 BAEE units per mg protein); purchased Sigma-Aldrich (Steinheim, Germany); host or cells: bovine pancreas (tissue-derived)
T6 sequence (P00760 24-246): T2 sequence (P00760 24-246)
Description: as §5

[7] = 16 min vs 0 min, Tris–HCl pH 8.0, 37 °C, mean of 3 parallels
[8] = 45 min vs 0 min, Tris–HCl pH 8.0, 37 °C, mean of 3 parallels

T4 sequence (Q14790 217-374 limits assumed): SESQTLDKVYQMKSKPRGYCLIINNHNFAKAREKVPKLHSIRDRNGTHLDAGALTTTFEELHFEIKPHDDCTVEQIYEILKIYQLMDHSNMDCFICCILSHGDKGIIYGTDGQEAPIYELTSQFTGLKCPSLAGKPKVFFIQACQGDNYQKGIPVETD
T4 sequence (Q14790 385-479 limits assumed): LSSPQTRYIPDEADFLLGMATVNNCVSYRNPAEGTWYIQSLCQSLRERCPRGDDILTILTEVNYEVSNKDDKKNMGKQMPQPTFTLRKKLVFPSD
T1 sequence (Q14790 217-374 limits assumed): as the sequence (Q14790 217-374 limits assumed) above
T1 sequence (Q14790 385-479 limits assumed): as the sequence (Q14790 385-479 limits assumed) above

## CCN(CC)c1ccc2cc(C(=O)N[C@@H](CCCCNC(=O)COCCOCCNC(=O)[C@H](C)NC(=O)[C@H](CC(=O)O)NC(=O)[C@@H](NC(=O)[C@H](CCC(=O)O)NC(=O)[C@H](CC(C)C)NC(=O)COCCOCCNC(=O)[C@H](CCCCNC(=O)CN(C)C(=O)c3ccccc3-c3c4ccc(=O)cc-4oc4cc(O)ccc34)NC(=O)COCCOCCNC(=O)[C@H](C)NC(=O)[C@H](CCCCN)NC(=O)[C@H](C)NC(=O)COCCOCCNC(=O)[C@H](CCCCNC(=O)CN(C)C(=O)c3ccccc3-c3c4ccc(=[N+](CC)CC)cc-4oc4cc(N(CC)CC)ccc34)NC(=O)COCCOCCNC(=O)[C@H](C)NC(=O)[C@H](Cc3ccccc3)NC(=O)[C@H](C)NC(=O)COCCOCCNC(=O)CN(C)C(=O)c3ccccc3-c3c4ccc(=[N+](CC)CC)cc-4oc4c3CCc3cc(N(C)C)ccc3-4)[C@@H](C)O)C(=O)O)c(=O)oc2c1 [4-dye probe (1)] (X1-[Sar][AEEA]AFA[AEEA]K([Sar-RhodamineB])[AEEA]AKA[AEEA]K([Sar-X2])[AEEA]LETDA[AEEA]-X3)
[1]
  solubility: ≥ 500 µM
[2]
  lowest detectable concentration of caspase-8: 2 U mL^−1
[3]
  stability on storage (comparable LC-MS chromatograms and peak areas): at least 30 days
[4]
  lowest detectable concentration of trypsin: 0.5 ng/mL
[5]
  lowest detectable concentration of chymotrypsin: 0.2 µg/mL
caspase-8
  sites of the probe cleaved by caspase-8: cleave only their own recognizable sites
chymotrypsin
  sites of the probe cleaved by chymotrypsin: both chymotrypsin and trypsin linkers were cleaved
[6]; Tris–HCl pH 8.0 with NaCl, EDTA, glycerol, 37 °C, 45 min
  fluorescence intensities of all four dyes during incubation in buffer (stability in buffer): practically unchanged
[6]; [7]
  DEAC (I16/I0): 1.03
  DEAC(I16/I0)/FL(I16/I0): 0.99
  FL (I16/I0): 1.04
  HN6 (I16/I0): 0.97
[6]; [8]
  DEAC (I45/I0): 1.05
  DEAC(I45/I0)/FL(I45/I0): 0.97
  FL (I45/I0): 1.08
  HN6 (I45/I0): 0.97
trypsin
  sites of the probe cleaved by trypsin: cleave only their own recognizable sites
